These results are taken from patent US20200291116A1 (ABEXXA BIOLOGICS, published 2020).

Assay [1] deals with T1, HLA-E*0103 (extracellular domain with beta-2-microglobulin, recombinant) (human). Briefly: peptide binding and in vitro refolding.
Assay [2] addresses T1, HLA-E*0103 (extracellular domain with …). Briefly: in vitro refold, Superdex 75, SEC-HPLC, 3D12 binding.

With YLLPAIVHI [peptide YLLPAIVHI (RNA Helicase p68)], the binding result in assay [1] is “binds”.

In the case of GLADKVYFL [peptide GLADKVYFL (CAD protein)], the binding result in assay [2] is “binds”.
